US20090155164A1 (Amgen, published 2009)
Residue numbers refer to the chain shown, from its start.

B1: anti-c-fms hybridoma antibody 1.64 (antibody, IgG1, V domains shown)
VH: EVQLVESGGGLVQPGGSLRLSCAASGFTFSSYDMHWVRQATGKGLEWVSGIGTAGDTYYPGSVKGRFNISRENAKNSLYLQMNSLRAGDTAVYYCAREGSWYGFDYWGQGTLVTVSS
VL: EIVLTQSPGTLSLSPGERATLSCRASQSVSSGYLAYLAWYQQKPGQAPRLLIYGASSTATGIPDRFSGSGSGTDFTLTISRLEPEDFAVYYCQQYGSSPITFGQGTRLEIK
notes: Hybridoma IgG1 (cohort 1); also called 1.64.1; 1.64.2
B2: anti-c-fms hybridoma antibody 1.109 (antibody, V domains shown)
VH: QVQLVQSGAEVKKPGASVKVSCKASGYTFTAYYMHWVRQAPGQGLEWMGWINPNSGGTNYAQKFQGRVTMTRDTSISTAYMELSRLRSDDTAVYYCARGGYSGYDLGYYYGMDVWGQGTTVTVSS
VL: DIQMTQSPSSLSASVGDRVTITCQASQNISNFLDWYQQKPGKAPNLLIYDASDLDPGVPSRFSGSGSGTDFTFTISSLQPEDIATYYCQQYVSLPLTFGGGTKVEIK
notes: Hybridoma IgG1 (cohort 1)
B3: anti-c-fms hybridoma antibody 1.66 (antibody, IgG1, V domains shown)
VH: QVQLVESGGGVVQPGRSLRLSCAASGFTFSSYGMHWVRQAPGKGLEWVAVIWYDGSNEYYADSVKGRFTISRDNSKSTLYLQMNSLRAEDTAVYYCAHSSGNYYDMDVWGQGTTVTVSS
VL: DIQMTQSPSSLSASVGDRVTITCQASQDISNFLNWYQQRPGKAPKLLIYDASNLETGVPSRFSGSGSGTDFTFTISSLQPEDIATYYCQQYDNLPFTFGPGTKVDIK
notes: Hybridoma IgG1 (cohort 1); also called 1.66.1; 1.66.2
B4: anti-c-fms hybridoma antibody 1.134 (antibody, IgG1, V domains shown)
VH: B3 VH with E58K, S77N, H98S, G101W, N102S, D105G
VL: DIQMTQSPSSLSASVGDRVTITCQASQDINNYLNWYQQKPGKAPKLLIYDASNLEIGVPSRFSGSGSGTDFIFTISSLQPEDIATYYCQQYDNFPFTFGGGTKVEIK
notes: Hybridoma IgG1 (cohort 1); also called 1.134.1
B5: anti-c-fms hybridoma antibody 1.143 (antibody, IgG1, V domains shown)
VH: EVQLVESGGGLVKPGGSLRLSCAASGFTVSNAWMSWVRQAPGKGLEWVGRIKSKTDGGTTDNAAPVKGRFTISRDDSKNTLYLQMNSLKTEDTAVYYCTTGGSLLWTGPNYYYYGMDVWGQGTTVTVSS
VL: DIQMTQSPSSLSASVGDRVTITCQASQDINNYLNWYQQKPGKAPKLLIYDTSNLEPGVPSRFSGSGSGTDFTFTISSLQPEDIATYYCQQYDNLLTFGQGTRLEIK
notes: Hybridoma IgG1 (cohort 1); also called 1.143.2; 1.143.1
B6: anti-c-fms hybridoma antibody 2.534 (antibody, IgG2, V domains shown)
VH: QVQLQESGPGLVKPSQTLSLTCTVSGGSISSGGYYWSWIRQHPGKGLEWIGYISYSGDTYYNPSLKSRLTISVDTSKHQFSLRLSSVTSADTAVYYCASLDLYGDYFDYWGQGTLVTVSS
VL: EIVLTQSPDFQSVTPKEKVTITCRASQYIGSSLHWYQQTPDQSPKLLINYVSQSFSGVPSRFSGSGSGTDFTLTINSLEAEDAATYYCHQSSSLPFTFGPGTKVDIK
notes: Hybridoma IgG2 (cohort 2); also called 2.534.1; 2.534.2
B7: anti-c-fms hybridoma antibody 2.508 (antibody, IgG2, V domains shown)
VH: QVQLVQSGAEVKKPGASVKVSCKVSGYTLTELSMHWVRQAPGKGLEWMGGFDPEDGETIYAQKFQGRVTMTEDTSTDTAYMELSSLRSEDTAVYYCATAGLEIRWFDPWGQGTLVTVSS
VL: DIVMTQSPLSLPVTPGEPASISCRSSQSLLHSNGYNYLDWYLQKPGQSPQFLIYLGSIRASGVPDRFSGSGSGTDFALTISRVEAEDVGVYYCMQALQTPRTFGQGTKVEIK
notes: Hybridoma IgG2 (cohort 2); also called 2.508.1; 2.508.2
B8: anti-c-fms hybridoma antibody 1.42 (antibody, IgG1, V domains shown)
VH: QVQLVQSGAEVKKPGASVKVSCKASGYTFTSYGISWVRQAPGQGLEWMGWISAYNGNTNYAQKLQGRVTMTTDTSTSTAYMELRSLRSDDTAVYYCARESWFGEVFFDYWGQGTLVTVSS
VL: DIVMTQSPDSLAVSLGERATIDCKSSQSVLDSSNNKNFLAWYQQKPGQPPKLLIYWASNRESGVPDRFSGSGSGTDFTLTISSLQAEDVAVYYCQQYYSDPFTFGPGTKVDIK
notes: Hybridoma IgG1 (cohort 1); also called 1.42.3
B9: anti-c-fms hybridoma antibody 1.30 (antibody, IgG1, V domains shown)
VH: B8 VH
VL: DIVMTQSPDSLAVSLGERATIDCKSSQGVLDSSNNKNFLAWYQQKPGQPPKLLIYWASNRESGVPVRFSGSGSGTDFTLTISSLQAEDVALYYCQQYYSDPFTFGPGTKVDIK
notes: Hybridoma IgG1 (cohort 1); also called 1.30.2; 1.30.3
B10: anti-c-fms hybridoma antibody 1.2 (antibody, V domains shown)
VH: B8 VH
VL: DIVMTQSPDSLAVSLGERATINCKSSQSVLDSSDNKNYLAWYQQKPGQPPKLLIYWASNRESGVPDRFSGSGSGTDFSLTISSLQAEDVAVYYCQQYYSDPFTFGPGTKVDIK
notes: Hybridoma IgG1 (cohort 1); also called 1.2.1
B11: anti-c-fms hybridoma antibody 1.131 (antibody, IgG1, V domains shown)
VH: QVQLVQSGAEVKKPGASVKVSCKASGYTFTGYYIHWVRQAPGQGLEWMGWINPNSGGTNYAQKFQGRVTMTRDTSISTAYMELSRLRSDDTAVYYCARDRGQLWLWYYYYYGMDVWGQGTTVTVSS
VL: DNVMTQTPLSLSVTPGQPASISCKSSQSLLHSDGKTYLYWYLQKPGQPPQLLIYEASNRFSGVPDRFSGSGSGTDFTLKISRVEAEDVGVYYCMQSIQLPLTFGGGTKVEIK
notes: Hybridoma IgG1 (cohort 1); also called 1.131.1
B12: anti-c-fms hybridoma antibody 2.550 (antibody, IgG2, V domains shown)
VH: QVQLVQSGAEVKKPGASVKVSCKASGYTLTSYGISWVRQAPGQGLEWMGWISAYNGNPNYAQKFQGRVTMTTDTSTSTAYMELRSLRSDDTAVYYCARDQGLLGFGELEGLFDYWGQGTLVTVSS
VL: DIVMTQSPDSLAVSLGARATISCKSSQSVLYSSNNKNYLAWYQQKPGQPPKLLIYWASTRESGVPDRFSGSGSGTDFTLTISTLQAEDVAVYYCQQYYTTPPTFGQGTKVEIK
notes: Hybridoma IgG2 (cohort 2)
B13: anti-c-fms hybridoma antibody 1.33.1.1 (antibody, IgG1, V domains shown)
VH: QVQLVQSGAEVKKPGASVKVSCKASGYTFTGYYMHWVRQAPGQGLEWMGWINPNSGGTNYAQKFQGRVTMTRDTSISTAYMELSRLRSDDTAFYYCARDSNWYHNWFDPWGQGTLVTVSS
VL: DIQMTQSPSSLSASVGDRVTITCRASQSISDYLNWYQQKPGKAPNLLIYAASSLQSGVPSRFSGSGSGTDFTLTISSLQPEDFATYFCQQTYSDPFTFGPGTKVDIK
notes: Hybridoma IgG1 (cohort 1)
B14: anti-c-fms hybridoma antibody 2.131 (antibody, IgG2, V domains shown)
VH: QVQLQESGPGLVKPSETLSLTCTVSGGSISNYYWSWIRQSAGKGLEWIGRIYTSGSTHYNPSLKSRIIMSVDTSKNQFSLKLSSVTAADTAVYYCARDRVFYGMDVWGQGTTVTVSS
VL: DIQMTQSPSSLSASVGDRVTITCRASQGFSNYLAWYQQKPGKVPKLLIYAASTLQSGVPSRFSGSGSGTDFTLTISSLQPEDVATYYCQKYNSAPLTFGGGTKVEIK
notes: Hybridoma IgG2 (cohort 2); also called 2.131.2
B15: anti-c-fms hybridoma antibody 1.90 (antibody, IgG1, V domains shown)
VH: B3 VH with E58K, S77N, H98S, G101S, Y103F
VL: B4 VL with N30S, I56T, I72T, Q90R, N93D, F94L, F96I, G100Q, K103R, V104L
notes: Hybridoma IgG1 (cohort 1); also called 1.90.2
B16: anti-c-fms hybridoma antibody 1.16 (antibody, IgG1, V domains shown)
VH: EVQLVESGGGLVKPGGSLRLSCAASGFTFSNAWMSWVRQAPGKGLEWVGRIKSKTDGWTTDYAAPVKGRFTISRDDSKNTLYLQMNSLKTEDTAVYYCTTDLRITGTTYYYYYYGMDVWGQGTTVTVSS
VL: B5 VL with N30S, L46F, T51A, P56T, L95I
notes: Hybridoma IgG1 (cohort 1)
B17: anti-c-fms hybridoma antibody 2.65 (antibody, IgG2, V domains shown)
VH: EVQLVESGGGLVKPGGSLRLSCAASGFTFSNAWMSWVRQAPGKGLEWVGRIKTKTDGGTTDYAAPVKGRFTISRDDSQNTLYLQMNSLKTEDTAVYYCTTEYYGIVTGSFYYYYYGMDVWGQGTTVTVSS
VL: B5 VL with T51A, P56T, N93D, Q99G, R102K, L103V
notes: Hybridoma IgG2 (cohort 2); also called 2.65.2
B18: anti-c-fms hybridoma antibody 1.72 (antibody, IgG1, V domains shown)
VH: EVQLVESGGGLVEPGGSLRLSCAASGFTFSTAWMSWVRQAPGKGLEWVGRIKSKTDGGTTDYAAPVKGRFTISRDDSKNTLYLQMNSLKNEDTAVYYCTTEGPYSNYGYYYYGVDVWGQGTTVTVSS
VL: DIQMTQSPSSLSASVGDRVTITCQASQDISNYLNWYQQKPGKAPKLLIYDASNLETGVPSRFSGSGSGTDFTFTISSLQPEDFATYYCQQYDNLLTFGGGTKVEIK
notes: Hybridoma IgG1 (cohort 1); also called 1.72.2
B19: anti-c-fms hybridoma antibody 2.369 (antibody, IgG2, V domains shown)
VH: QVQLVQSGAEVKKPGASVKVSCKVSGYTLTELSMHWVRQAPGKGLEWMGGFDPEDGETIYAQKFQGRVTMTEDTSTDTAYMELSSLRSEDTAVYYCATRAGTTLAYYYYAMDVWGQGTTVTVSS
VL: DIQMTQSPSSLSASVGDRVTITCRASQSISRYLNWYQQKPGKAPNLLIHAASSLQSGVPSRFSGSGSGTDFTLTISSLQPEDFATYYCQQSYITPPSFGQGTKLEIK
notes: Hybridoma IgG2 (cohort 2); also called 2.369.3
B20: anti-c-fms hybridoma antibody 1.13 (antibody, V domains shown)
VH: QVQLQESGPGLVKPSETLSLTCTVSGGSVSSGGYYWSWIRQPPGKGLEWIGYIYYSGSTNYNPSLKSRVTISVDTSKNQFSLKLSSVTAADTAVYYCAAGIAATGTLFDCWGQGTLVTVSS
VL: B4 VL with N30S, I56T, I72T, T74I, Y91F, F94L, F96P, I106S
notes: Hybridoma IgG1 (cohort 1)

Biological target: T1, human c-fms, full length, on cells (human, UniProt P07333 20-972)
T1 sequence (P07333 20-972): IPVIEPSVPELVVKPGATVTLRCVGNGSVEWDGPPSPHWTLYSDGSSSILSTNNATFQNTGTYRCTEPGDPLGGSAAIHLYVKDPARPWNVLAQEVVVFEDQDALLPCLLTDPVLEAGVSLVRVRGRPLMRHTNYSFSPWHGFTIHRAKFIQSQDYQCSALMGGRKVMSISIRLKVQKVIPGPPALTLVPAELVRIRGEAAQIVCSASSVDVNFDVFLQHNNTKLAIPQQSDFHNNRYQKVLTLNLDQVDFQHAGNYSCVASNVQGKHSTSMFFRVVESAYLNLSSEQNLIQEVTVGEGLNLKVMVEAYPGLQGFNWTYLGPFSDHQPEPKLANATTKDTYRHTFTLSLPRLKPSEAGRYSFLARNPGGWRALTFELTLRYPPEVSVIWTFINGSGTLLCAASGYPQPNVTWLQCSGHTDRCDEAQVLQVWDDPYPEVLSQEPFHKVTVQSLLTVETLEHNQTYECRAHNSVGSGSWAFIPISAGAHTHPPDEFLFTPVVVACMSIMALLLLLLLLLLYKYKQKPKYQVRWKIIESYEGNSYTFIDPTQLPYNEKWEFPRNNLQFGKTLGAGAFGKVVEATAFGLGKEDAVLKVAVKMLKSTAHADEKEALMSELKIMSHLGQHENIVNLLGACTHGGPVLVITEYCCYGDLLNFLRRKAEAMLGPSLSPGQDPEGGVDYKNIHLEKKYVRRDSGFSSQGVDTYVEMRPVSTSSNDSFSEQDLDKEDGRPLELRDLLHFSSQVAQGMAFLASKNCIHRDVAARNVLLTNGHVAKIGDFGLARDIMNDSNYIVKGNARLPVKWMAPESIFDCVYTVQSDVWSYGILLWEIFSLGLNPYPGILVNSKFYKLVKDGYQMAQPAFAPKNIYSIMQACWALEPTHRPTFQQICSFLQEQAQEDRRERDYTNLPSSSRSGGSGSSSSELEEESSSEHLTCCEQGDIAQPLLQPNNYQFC
Test: cell-based or functional assay

AML-5 bioassay IC50 [pM]	Human CD14+ monocytes bioassay IC50 [pM]	Binder
4	13	B1
5	20	B2
27	67	B3
7	< 7	B4
100	–	B5
20	47	B6
20	133	B7
20	67	B8
40	67	B9
6	< 7	B10

Biological target: T2, cynomolgus monkey c-fms on primary bone marrow cells (cynomolgus monkey)
Test: cell-based or functional assay

Cynomolgus bone marrow bioassay IC50 [pM]	Binder
73	B2
47	B3
40	B4
360	B5
200	B8
267	B9
40	B10

Biological target: T1, human c-fms, full length, on cells
Test: cell-based or functional assay
Remark: another data set of the same source

AML-5 bioassay IC50 [ng/mL]	Human CD14+ monocytes bioassay IC50 [ng/mL]	Binder
0.6	2	B1
0.7	3	B2
4	10	B3
1	< 1	B4
15	–	B5
3	7	B6
5	20	B7
3	10	B8
6	10	B9
0.9	< 1	B10

Biological target: T2, cynomolgus monkey c-fms on primary bone …
Test: cell-based or functional assay
Remark: another data set of the same source

Cynomolgus bone marrow bioassay IC50 [ng/mL]	Binder
11	B2
7	B3
6	B4
54	B5
10	B9
6	B10

Biological target: T3, monomeric human c-fms (residues 1-512)-pHis (human, UniProt P07333 20-512)
T3 construct: Construct stated as residues 1-512; signal stated as amino acids 1-19 and left out; also called human c-fms (1-512).pHIS; monomeric c-fms
T3 sequence (P07333 20-512): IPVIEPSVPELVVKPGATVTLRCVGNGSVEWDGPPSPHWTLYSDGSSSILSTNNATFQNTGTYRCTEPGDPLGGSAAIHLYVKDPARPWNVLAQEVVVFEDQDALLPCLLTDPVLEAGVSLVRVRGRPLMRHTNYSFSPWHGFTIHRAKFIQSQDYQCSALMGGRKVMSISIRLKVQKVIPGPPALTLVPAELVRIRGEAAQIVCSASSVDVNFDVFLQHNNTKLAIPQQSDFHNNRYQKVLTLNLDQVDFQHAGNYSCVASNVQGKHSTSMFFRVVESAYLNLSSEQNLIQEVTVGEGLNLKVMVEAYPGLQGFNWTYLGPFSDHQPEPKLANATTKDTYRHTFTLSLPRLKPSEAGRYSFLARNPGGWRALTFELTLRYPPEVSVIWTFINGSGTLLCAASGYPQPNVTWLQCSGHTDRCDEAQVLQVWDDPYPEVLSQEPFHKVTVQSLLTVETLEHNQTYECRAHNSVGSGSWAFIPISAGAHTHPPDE
Test: Biacore, low resolution; hybridoma mAb captured on anti-human IgG, monomeric c-fms-pHis analyte at 125 nM
Description: Anti-human IgG was immobilized on all four flow cells of a sensor chip using amine coupling. Crude hybridoma samples were diluted into halves and captured on the anti-IgG surface. […] Sequence lineage analyses were also performed on the 29 hybridomas (see, FIG. 2).

Kd [nM]	koff [s⁻¹]	kon [M⁻¹ s⁻¹]	Binder
41	0.00215	53100	B11
2.5	0.00064	255000	B1
24	0.00724	300000	B12
1.2	0.000116	98900	B13
≤ 0.2	≤ 1e-05	43000	B14
0.1	4.36e-05	385000	B2
23	0.0055	239000	B3
10	0.002	193000	B15
4.6	0.000703	153000	B4
10	0.000559	55000	B5
23	0.00296	129000	B16
9.5	0.0016	168000	B17
43	0.015	345000	B6
5.5	0.000568	103000	B18
0.7	5.28e-05	74900	B7
14	0.00138	100000	B19
1.6	0.00107	660000	B8
3.4	0.0014	406000	B9
1.4	0.00113	817000	B10
6.4	0.000773	120000	B20
